We go through one molecule from article PMC10941009, “Structural basis for specific DNA sequence recognition by the transcription factor NFIL3” (The Journal of Biological Chemistry, 2024).

What all share (assay): ITC; ITC: 20 mM Tris pH 7.5, 150 mM NaCl, 25 °C; EMSA: same buffer, 4 °C, 6% native gel in 0.5x TBE
Settings in all cases: protein: recombinant; tags: His6-SUMO removed by TEV; chain copies: 2; blunt

One data set deals with T1, NFIL3 R94H (human, UniProt Q16649 65-161, R94H).
T1 sequence: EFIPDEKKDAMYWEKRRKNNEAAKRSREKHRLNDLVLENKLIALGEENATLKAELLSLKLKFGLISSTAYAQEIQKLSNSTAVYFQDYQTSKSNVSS

Another data set addresses T2, NFIL3 N112D (human, UniProt Q16649 65-161, N112D).
T2 sequence: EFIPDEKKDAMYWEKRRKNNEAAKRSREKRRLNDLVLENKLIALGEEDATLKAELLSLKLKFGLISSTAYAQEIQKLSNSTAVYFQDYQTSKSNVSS

A further data set deals with T3, NFIL3 A113V (human, UniProt Q16649 65-161, A113V).
T3 sequence: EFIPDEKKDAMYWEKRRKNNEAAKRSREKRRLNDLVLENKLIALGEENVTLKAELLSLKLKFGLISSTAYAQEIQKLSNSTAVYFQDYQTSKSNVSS

Another data set deals with T4, NFIL3 R95Q (human, UniProt Q16649 65-161, R95Q).
T4 sequence: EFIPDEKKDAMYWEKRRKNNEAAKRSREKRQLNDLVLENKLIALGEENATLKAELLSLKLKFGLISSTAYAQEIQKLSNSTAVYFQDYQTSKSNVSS

A further data set deals with T5, NFIL3 E78G (human, UniProt Q16649 65-161, E78G).
T5 sequence: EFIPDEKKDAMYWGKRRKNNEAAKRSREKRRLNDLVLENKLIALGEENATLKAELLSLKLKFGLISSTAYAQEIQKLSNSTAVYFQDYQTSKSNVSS

In another data set the target is T6, NFIL3 A113T (human, UniProt Q16649 65-161, A113T).
T6 sequence: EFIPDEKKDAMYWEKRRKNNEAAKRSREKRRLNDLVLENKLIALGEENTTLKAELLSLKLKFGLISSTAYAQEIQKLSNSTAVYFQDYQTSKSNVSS

A further data set addresses T7, NFIL3 E111Q (human, UniProt Q16649 65-161, E111Q).
T7 sequence: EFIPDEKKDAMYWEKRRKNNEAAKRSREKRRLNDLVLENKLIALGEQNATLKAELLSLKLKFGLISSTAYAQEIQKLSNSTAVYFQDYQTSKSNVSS

For the next data set, the target named is T8, NFIL3 N84A (human, UniProt Q16649 65-161, N84A).
T8 sequence: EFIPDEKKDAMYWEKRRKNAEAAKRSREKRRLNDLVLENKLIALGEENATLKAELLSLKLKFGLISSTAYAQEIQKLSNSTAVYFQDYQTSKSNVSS

Another data set has as its target T9, NFIL3 E111D (human, UniProt Q16649 65-161, E111D).
T9 sequence: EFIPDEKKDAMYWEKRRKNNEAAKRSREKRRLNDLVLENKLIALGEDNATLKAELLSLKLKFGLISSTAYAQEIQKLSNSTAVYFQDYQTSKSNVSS

The target in a further data set is C/EBPβ E309D (human, UniProt P17676 259-336, E309D).
C/EBPβ E309D, sequence (P17676 259-336 E309D): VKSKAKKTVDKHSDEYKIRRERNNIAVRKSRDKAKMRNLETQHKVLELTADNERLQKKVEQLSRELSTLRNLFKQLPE
In a further data set the target is C/EBPα D320E (human, UniProt P49715 281-340, D320E).
C/EBPα D320E, sequence (P49715 281-340 D320E): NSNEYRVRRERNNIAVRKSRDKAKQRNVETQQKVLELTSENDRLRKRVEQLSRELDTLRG

B1: TTACGTAA (dsDNA)
DNA 1: CATTACGTAATG
DNA 2: CATTACGTAATG
Regarding B1, the Kd with NFIL3 R94H turned out to be 4.01 ± 0.74 µM; with NFIL3 N112D, 2150 ± 160 nM; in the data set with NFIL3 A113V it was 120 ± 10 nM; with NFIL3 R95Q, 8.4 ± 0.72 µM; in the data set with NFIL3 E78G, 2180 ± 150 nM; in the data set with NFIL3 A113T it was 220 ± 30 nM. In addition, the results for the dissociation constant (Kd) with NFIL3 E111Q and with NFIL3 N84A were 200 ± 20 nM and 1490 ± 110 nM, respectively. Also, the binding signal in the data set with NFIL3 E111D is around 8 fold weaker than WT; with C/EBPβ E309D, around 4 fold weaker than WT; with C/EBPα D320E, around 5 fold stronger than WT.

The Kd is the free concentration of one partner at which half of the binding sites on the other are occupied at equilibrium, for simple one-to-one binding.
